# From patent US20200131473
# Test system: ETAA1-ATR activating domain (ETAA1-AAD)
# Sequence (chain, as listed by the source): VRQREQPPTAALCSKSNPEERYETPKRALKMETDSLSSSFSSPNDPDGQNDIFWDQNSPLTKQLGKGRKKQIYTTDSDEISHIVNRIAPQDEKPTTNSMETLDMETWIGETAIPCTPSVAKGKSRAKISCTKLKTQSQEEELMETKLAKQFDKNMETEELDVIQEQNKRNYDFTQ
# Sequence of ATR (ATM and Rad3-related kinase) (chain, as listed by the source): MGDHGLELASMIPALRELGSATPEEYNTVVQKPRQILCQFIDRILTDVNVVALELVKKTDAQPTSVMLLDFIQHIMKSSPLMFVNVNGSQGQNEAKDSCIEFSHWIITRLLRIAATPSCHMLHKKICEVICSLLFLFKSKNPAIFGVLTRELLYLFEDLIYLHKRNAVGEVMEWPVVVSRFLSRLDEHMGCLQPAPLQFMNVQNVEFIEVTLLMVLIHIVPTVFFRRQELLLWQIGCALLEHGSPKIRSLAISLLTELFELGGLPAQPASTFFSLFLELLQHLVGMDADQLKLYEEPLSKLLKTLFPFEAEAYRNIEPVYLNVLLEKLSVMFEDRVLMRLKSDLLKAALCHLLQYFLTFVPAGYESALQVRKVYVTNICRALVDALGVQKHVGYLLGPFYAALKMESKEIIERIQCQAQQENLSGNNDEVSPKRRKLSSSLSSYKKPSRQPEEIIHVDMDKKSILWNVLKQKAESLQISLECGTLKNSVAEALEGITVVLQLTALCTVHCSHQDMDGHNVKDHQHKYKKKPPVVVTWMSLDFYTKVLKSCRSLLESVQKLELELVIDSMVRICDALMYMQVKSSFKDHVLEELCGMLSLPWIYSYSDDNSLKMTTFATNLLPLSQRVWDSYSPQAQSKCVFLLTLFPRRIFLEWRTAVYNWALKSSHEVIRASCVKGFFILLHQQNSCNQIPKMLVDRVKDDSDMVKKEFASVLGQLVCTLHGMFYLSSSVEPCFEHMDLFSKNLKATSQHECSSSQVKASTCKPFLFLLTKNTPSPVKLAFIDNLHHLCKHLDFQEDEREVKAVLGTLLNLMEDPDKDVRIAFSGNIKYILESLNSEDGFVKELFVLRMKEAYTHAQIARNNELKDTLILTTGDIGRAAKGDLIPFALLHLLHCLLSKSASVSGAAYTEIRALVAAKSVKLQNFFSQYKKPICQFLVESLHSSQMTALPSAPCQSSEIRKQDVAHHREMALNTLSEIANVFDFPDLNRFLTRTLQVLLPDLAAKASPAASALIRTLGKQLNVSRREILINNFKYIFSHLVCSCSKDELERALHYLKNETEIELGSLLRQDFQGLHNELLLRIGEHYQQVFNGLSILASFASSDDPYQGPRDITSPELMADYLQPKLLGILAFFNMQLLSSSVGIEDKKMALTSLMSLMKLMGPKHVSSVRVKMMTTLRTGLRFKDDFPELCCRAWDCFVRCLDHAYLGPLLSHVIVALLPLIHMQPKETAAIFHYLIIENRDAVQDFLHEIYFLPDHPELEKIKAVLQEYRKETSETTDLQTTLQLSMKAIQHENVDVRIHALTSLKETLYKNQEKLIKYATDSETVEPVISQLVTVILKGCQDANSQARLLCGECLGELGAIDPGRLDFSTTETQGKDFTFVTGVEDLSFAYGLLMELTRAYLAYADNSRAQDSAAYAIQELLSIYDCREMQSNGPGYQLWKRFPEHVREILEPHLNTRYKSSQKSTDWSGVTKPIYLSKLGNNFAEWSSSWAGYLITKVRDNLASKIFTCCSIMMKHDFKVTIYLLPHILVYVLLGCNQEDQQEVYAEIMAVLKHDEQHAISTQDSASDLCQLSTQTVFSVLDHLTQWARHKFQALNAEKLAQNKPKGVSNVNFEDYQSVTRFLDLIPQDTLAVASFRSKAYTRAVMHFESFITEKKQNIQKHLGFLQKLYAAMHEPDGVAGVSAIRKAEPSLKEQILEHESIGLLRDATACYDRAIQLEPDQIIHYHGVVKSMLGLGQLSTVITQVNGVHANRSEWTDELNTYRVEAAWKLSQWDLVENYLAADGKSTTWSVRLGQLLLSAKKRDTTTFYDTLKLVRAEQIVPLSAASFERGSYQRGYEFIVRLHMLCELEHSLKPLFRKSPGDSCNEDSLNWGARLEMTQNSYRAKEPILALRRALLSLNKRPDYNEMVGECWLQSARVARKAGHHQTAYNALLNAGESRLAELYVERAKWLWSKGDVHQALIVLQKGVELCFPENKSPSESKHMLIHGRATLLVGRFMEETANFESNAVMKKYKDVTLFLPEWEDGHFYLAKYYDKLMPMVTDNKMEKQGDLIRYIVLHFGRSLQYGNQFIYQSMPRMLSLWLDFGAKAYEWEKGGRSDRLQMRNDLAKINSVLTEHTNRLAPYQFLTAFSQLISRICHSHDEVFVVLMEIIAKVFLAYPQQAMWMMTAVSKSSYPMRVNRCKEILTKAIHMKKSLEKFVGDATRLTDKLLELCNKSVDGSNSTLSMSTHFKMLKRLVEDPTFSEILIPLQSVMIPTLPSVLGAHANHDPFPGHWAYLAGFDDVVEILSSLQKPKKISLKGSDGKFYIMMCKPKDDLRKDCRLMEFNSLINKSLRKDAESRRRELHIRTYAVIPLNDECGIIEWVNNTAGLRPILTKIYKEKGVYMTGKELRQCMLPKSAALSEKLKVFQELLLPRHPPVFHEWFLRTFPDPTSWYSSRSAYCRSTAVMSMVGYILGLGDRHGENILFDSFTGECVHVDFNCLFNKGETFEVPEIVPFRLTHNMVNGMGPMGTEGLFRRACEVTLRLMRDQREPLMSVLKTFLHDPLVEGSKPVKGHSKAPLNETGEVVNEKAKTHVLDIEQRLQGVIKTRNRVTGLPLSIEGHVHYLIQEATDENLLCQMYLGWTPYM
substance,measurement,value
ATR (ATM and Rad3-related kinase),"phosphorylation of H2AX, CHK1 and CHK2 (immunoblot and FACS in Dox-iETAA1 ESCs)",ATR activation through ETAA1 expression leads to the phosphorylation of H2AX and CHK1 but not CHK2 in ESCs
